The text below walks through data of the Human Domainome abundance scans (Beltran et al. 2025).

To fix the notation:
B1: Integrator complex subunit 12, residues 155 to 213; numbered along this chain, Q96CB8 (parent)
chain: AMEMGLACVVCRQMMVASGNQLVECQECHNLYHRDCHKPQVTDKEANDPRLVWYCARCT

± gives the uncertainty stated by the source.

The variants in this data set derive from B1. The data set is described as follows: abundance fitness (aPCA) (normalised: wild type 0, dead -1); higher = more abundant; growth selection in yeast, the domain comes from the species named. Particulars: Homo sapiens.
For the variant Y32D, the abundance fitness is -0.525 ± 0.044.

Take N30E: the abundance fitness is -0.103 ± 0.072. For N30G, the abundance fitness was 0.03 ± 0.039.

On to N30Y, for which the abundance fitness was -0.081 ± 0.045. As to N30C, the abundance fitness was 0.013 ± 0.044. Under N30H stands -0.049 ± 0.065. Turning to N30K, the abundance fitness worked out at 0.048 ± 0.095. On to P39Y, for which the abundance fitness was -0.295 ± 0.12. Under P39R stands -0.279 ± 0.038. Turning to P39N, the abundance fitness was -0.144 ± 0.11.

On to P39V, for which the abundance fitness was -0.257 ± 0.049. As for P39A, the abundance fitness is -0.313 ± 0.056. Under P39F stands -0.308 ± 0.11; under P39S, -0.228 ± 0.049. Next, A7Y: -0.144 ± 0.038. Under A7D stands -0.027 ± 0.04; under A7P, 0.069 ± 0.054; under A7F, -0.172 ± 0.038.

As to P49L, the abundance fitness is -0.101 ± 0.048. Next, P49R: -0.022 ± 0.041. For the variant P49Y, the abundance fitness was -0.258 ± 0.1. Next, P49D: 0.026 ± 0.079; P49V: -0.082 ± 0.044; P49K: 0.001 ± 0.072. Under R57E stands -0.013 ± 0.043; under R57T, 0.057 ± 0.056. Under R57C stands -0.075 ± 0.068; under R57P, -0.013 ± 0.048. On to R57Q, for which the abundance fitness is -0.034 ± 0.051. Take E24Y: the abundance fitness was -0.493 ± 0.052. Next, E24K: -0.205 ± 0.083; E24H: -0.226 ± 0.056; E24V: -0.262 ± 0.039.

As for E24C, the abundance fitness was -0.219 ± 0.043. Next, E24S: -0.236 ± 0.036.

In the case of E24T, the abundance fitness was -0.157 ± 0.055. E24N: the abundance fitness was -0.308 ± 0.044. Under E24F stands -0.459 ± 0.041; under W53D, -0.104 ± 0.14; under W53T, -0.13 ± 0.071.

W53F: the abundance fitness was -0.045 ± 0.098. In the case of W53N, the abundance fitness is -0.112 ± 0.094.

Regarding W53A, the abundance fitness was -0.115 ± 0.064. On to W53L, for which the abundance fitness was -0.283 ± 0.049. Turning to W53K, the abundance fitness was -0.146 ± 0.067. Next, W53Y: -0.322 ± 0.16. Take W53M: the abundance fitness was -0.252 ± 0.077. In the case of C55Q, the abundance fitness was -1.01 ± 0.13. For the variant C55F, the abundance fitness was -1.05 ± 0.21. In the case of C55D, the abundance fitness is -0.507 ± 0.14. Consider C55E, for which the abundance fitness is -0.765 ± 0.067. In the case of C25T, the abundance fitness was -0.622 ± 0.12. Turning to C25L, the abundance fitness was -0.866 ± 0.09. As to C25P, the abundance fitness is -0.869 ± 0.19. Regarding G19E, the abundance fitness was 0.058 ± 0.065. Next, G19S: -0.044 ± 0.04; V9F: -0.081 ± 0.035.

Regarding V9E, the abundance fitness was -0.197 ± 0.078.

As for V9W, the abundance fitness was -0.45 ± 0.095.

For V9P, the abundance fitness was -0.289 ± 0.045. For V9D, the abundance fitness was -0.248 ± 0.049. In the case of V9K, the abundance fitness is -0.279 ± 0.07. In the case of V9M, the abundance fitness was -0.204 ± 0.054. Next, V9A: -0.046 ± 0.044; D43K: -0.163 ± 0.048; D43H: -0.155 ± 0.071. On to D43Y, for which the abundance fitness is -0.161 ± 0.067. For D43C, the abundance fitness was -0.078 ± 0.06. For the variant D43T, the abundance fitness was -0.08 ± 0.047.

Regarding C58R, the abundance fitness is -0.929 ± 0.061.

For the variant C58P, the abundance fitness is -0.762 ± 0.13. As to C58D, the abundance fitness was -0.8 ± 0.093. Consider A56Y, for which the abundance fitness is -0.136 ± 0.079. Next, A56S: -0.054 ± 0.047; A56G: -0.057 ± 0.039. Next, A56F: -0.265 ± 0.069; A56R: -0.12 ± 0.041; A56T: -0.054 ± 0.05. Consider A56P, for which the abundance fitness is -0.185 ± 0.054. Take V23C: the abundance fitness is -0.103 ± 0.032. Under V23G stands -0.528 ± 0.038; under V23P, -0.518 ± 0.046; under V23H, -0.075 ± 0.044. Next, V23D: -0.296 ± 0.042; V23L: 0.006 ± 0.032.

Turning to M4T, the abundance fitness stood at 0.04 ± 0.041. Next, M4P: -0.022 ± 0.057; M4C: -0.026 ± 0.036; M4G: -0.044 ± 0.035. Take M4D: the abundance fitness is -0.06 ± 0.04. Under M4K stands -0.034 ± 0.072; under M4L, -0.027 ± 0.036; under C36T, -0.588 ± 0.046.

For the variant C36M, the abundance fitness is -0.63 ± 0.064.

For the variant C36S, the abundance fitness is -0.716 ± 0.036. In the case of C36N, the abundance fitness was -0.615 ± 0.044. For C36H, the abundance fitness was -0.516 ± 0.046. Under C36V stands -0.73 ± 0.037; under Y54A, -0.093 ± 0.047; under Y54P, -0.35 ± 0.059.

Consider Y54Q, for which the abundance fitness amounted to 0.027 ± 0.065. Next, Y54N: 0.007 ± 0.081; Y54W: -0.222 ± 0.063; Y54V: -0.068 ± 0.045. Turning to D48T, the abundance fitness turned out to be 0.016 ± 0.063.

For D48P, the abundance fitness was -0.214 ± 0.065.

For D48M, the abundance fitness was -0.085 ± 0.071. Next, D48I: -0.187 ± 0.14; D48W: -0.149 ± 0.069. For D48Y, the abundance fitness was -0.178 ± 0.084. With D48F, the abundance fitness was -0.254 ± 0.24. Under D48N stands -0.128 ± 0.069; under D48H, -0.081 ± 0.15; under V10Q, -0.157 ± 0.061. In the case of V10G, the abundance fitness was -0.206 ± 0.042. Next, V10R: -0.347 ± 0.039; V10A: -0.059 ± 0.041. As to V10K, the abundance fitness was -0.242 ± 0.05.

V10P: the abundance fitness is -0.627 ± 0.048. Under V10N stands -0.191 ± 0.033; under V10C, -0.193 ± 0.041; under R12I, -0.74 ± 0.044.

As to R12N, the abundance fitness amounted to 0.002 ± 0.034. R12M: the abundance fitness was -0.081 ± 0.056. Under R12W stands -0.405 ± 0.066. Under R12E stands 0.007 ± 0.067. Next, R12S: 0.055 ± 0.031; V16G: 0.037 ± 0.031.

For the variant V16L, the abundance fitness was -0.022 ± 0.037. Under V16E stands 0.029 ± 0.054; under V16K, 0.03 ± 0.065; under V16F, -0.02 ± 0.035. As to V16S, the abundance fitness came out at 0.011 ± 0.03. Consider V16C, for which the abundance fitness is -0.029 ± 0.035. With L51I, the abundance fitness was -0.282 ± 0.08. Next, L51V: -0.003 ± 0.052; L51R: 0.062 ± 0.04. Regarding L51A, the abundance fitness came to 0.042 ± 0.054.

As for L51G, the abundance fitness was found to be 0.069 ± 0.046.

Take E27C: the abundance fitness is -0.107 ± 0.034. Turning to E27R, the abundance fitness is -0.001 ± 0.034. Regarding E27K, the abundance fitness stood at 0.087 ± 0.063. Consider Q26F, for which the abundance fitness was -0.062 ± 0.046. For Q26I, the abundance fitness is -0.155 ± 0.043. Next, Q26G: 0.039 ± 0.053; Q26N: 0.013 ± 0.051. As for Q26M, the abundance fitness was -0.184 ± 0.08.

For Q26A, the abundance fitness amounted to 0.007 ± 0.046. Under Q26L stands -0.111 ± 0.049; under Q26V, -0.059 ± 0.043; under Q26H, -0.012 ± 0.077. Next, Q26D: -0.147 ± 0.068.

Consider Q26P, for which the abundance fitness was -0.014 ± 0.06. Under T59A stands 0.016 ± 0.074. On to T59G, for which the abundance fitness was -0.13 ± 0.082.

As for T59P, the abundance fitness was -0.142 ± 0.083. Next, T59F: -0.254 ± 0.14; T59I: -0.103 ± 0.089. Next, T59E: 0.098 ± 0.14; M15H: 0.083 ± 0.042. Next, M15F: -0.053 ± 0.033. On to V41W, for which the abundance fitness was -0.314 ± 0.056. Next, V41G: -0.235 ± 0.041. In the case of V41S, the abundance fitness was -0.204 ± 0.05. Next, V41N: -0.481 ± 0.096; E45V: -0.038 ± 0.048; E45K: 0.073 ± 0.075.
